Here are results for 1 molecule from patent publication US20080201790A1, “Method and product for regulating cell responsiveness to external signals” (priority 1993, published 2008).

The target of this assay is GST-Ras^V12(GTPγS) agarose (UniProt P01112). In words: GST-Ras^V12 agarose pull-down from COS cell lysate, anti-MEKK immunoblot.

B1: MEKK1 (protein encoded by p-MEKK1, transiently expressed in COS cells) (enzyme)
chain: MVTAVPAVFSKLVTMLNASGSTHFTRMRRRLMAIADEVEIAEVIQLGVEDTVDGHQDSLQAVAPTSCLENSSLEHTVHREKTGKGLSATRLSASSEDISDRLAGVSVGLPSSTTTEQPKPAVQTKGRPHSQCLNSSPLSHAQLMFPAPSAPCSSAPSVPDISKHRPQAFVPCKIPSASPQTQRKFSLQFQRNCSEHRDSDQLSPVFTQSRPPPSSNIHRPKPSRPVPGSTSKLGDATKSSMTLDLGSASRCDDSFGGGGNSGNAVIPSDETVFTPVEDKCRLDVNTELNSSIEDLLEASMPSSDTTVTFKSEVAVLSPEKAENDDTYKDDVNHNQKCKEKMEAEEEEALAIAMAMSASQDALPIVPQLQVENGEDIIIIQQDTPETLPGHTKAKQPYREDAEWLKGQQIGLGAFSSCYQAQDVGTGTLMAVKQVTYVRNTSSEQEEVVEALREEIRMMGHLNHPNIIRMLGATCEKSNYNLFIEWMAGGSVAHLLSKYGAFKESVVINYTEQLLRGLSYLHENQIIHRDVKGANLLIDSTGQRLRIADFGAAARLASKGTGAGEFQGQLLGTIAFMAPEVLRGQQYGRSCDVWSVGCAIIEMACAKPPWNAEKHSNHLALIFKIASATTAPSIPSHLSPGLRDVAVRCLELQPQDRPPSRELLKHPVFRTTW
B1 came in with a fold binding relative to GST-Ras^V12(GDP) above 5 fold.
